Measurements as given in US12344663B2, “Anti-C3 antibodies and antigen-binding fragments thereof and their uses for treating eye or ocular diseases” (CDR-Life AG, priority 2021, dated 2025).

Tests used:
Lectin Pathway = assay: WEISLAB Complement system Screen, lectin pathway MAC (C5b-C9) formation; type: biochemical, human; settings: human serum; read-out: IC50 (nM) Lectin Pathway MAC deposition
Description: (§1) To identify antibodies that block all 3 complement pathways, antibodies are screened using an enzyme immunoassay for the qualitative determination of functional classical, lectin and alternative complement pathways in human serum using the WEISLAB® Complement system Screen (Svar Life Science AB, Malmö, Sweden).
(§2) To monitor inhibition of the complement system in human serum, the scFv of the invention or the comparator molecules are tested using an enzyme immunoassay for the qualitative determination of functional classical, lectin and alternative complement pathways in human serum using the WEISLAB® Complement system Screen (Svar Life Science AB, Malmö, Sweden), following the supplier's instructions. The amount of C5b-C9 neoantigen generated is proportional to the functional activity of complement pathways. The scFv of the invention and the comparator molecules are tested in a concentration response curve and the IC50 for the inhibition is calculated using the GraphPadPrism software and a non-linear, 4 parameters curve regression.

[1] = Storage stability at 150 mg/ml, oligomerization by SE-HPLC; type: physicochemical; settings: decrease in monomeric content versus start
Description: Clone I, clone II and clone III are tested for storage stability. Samples are concentrated to 150 mg/ml (Vivaspin20 centrifugal device, 5 kDa MWCO at 3800×g) and stored at 25° C. and 40° C. for up to 4 weeks. Samples are analyzed for oligomerization (SE-HPLC) and chemical degradation (IEX-HPLC). The starting monomeric purity as determined by SE-HPLC was 99.96% for each clone. The starting charge purity, as determined by IEX-HPLC was 98.07%, 97.16% and 96.76%, respectively for clone I, II and III.

Classical Pathway (CP) = assay: Hemolytic assay, antibody-sensitized sheep erythrocytes in human serum; type: cell-based; settings: 1% human serum, read-out: IC50 (nM) Classical Pathway Hemolysis
Description: Anti-C3 antibody fragments are evaluated for their ability to inhibit hemolysis of antibody-sensitized sheep erythrocytes mediated by Classical Pathway (CP) or Alternative Pathway (AP) activation in human serum. For this, sheep erythrocytes are coated with hemolysin (rabbit anti-sheep antibodies) on the surface to activate the complement system in human serum resulting in C3 activation and subsequent formation of the Membrane Attack Complex (MAC). The MAC assembles on the membrane of sheep erythrocytes leading to cell lysis. The level of hemoglobin released from lysed erythrocytes is measured at OD 414 nm and is proportional to the complement activity present in the serum sample. For determining the ability of anti-C3 molecules to inhibit CP activity, human serum was diluted in GVB++ buffer (Complement technology) for optimal activation of the Classical Pathway (requires calcium and magnesium ions). Serial dilutions of anti-C3 test samples are prepared from this solution with a final concentration of 1% human serum for each datapoint (prior to addition to erythrocytes). The samples are incubated with antibody-sensitized sheep erythrocytes for 1 hour at 37° C. and released hemoglobin is measured in the supernatant after a centrifugation step.

human C3 R102G = molecular target: T1, human C3 R102G (Homo sapiens, UniProt P01024, R102G); assay: SPR (Biacore T100) binding to C3 SNP2 R102G; settings: for Kd: Table 20, SPR; for kd C3 SNP2 R102G: off-rate; for ka C3 SNP2 R102G: on-rate
T1 construct: 6×His (N); made in house; host or cells: CHO (ExpiFectamine CHO Expression Kit)
Description: The kinetic parameters of the candidates are determined using a surface plasmon resonance (SPR) and Biacore T100 device. C3 and different variants thereof (Table 19) are immobilized as a ligand on a HC30M SPR sensor chip (XanTec bionanalytics, Germany) using EDC/[…] linking chemistry. Five increasing concentrations of each molecule (analyte) are consecutively injected using the single cycle kinetics (SCK) mode to determine the kinetic parameters. Regeneration between the candidates is done with 10 mM glycine*HCl, 2 M NaCl, pH 3.5. The data is fitted to a 1:1 Langmuir binding model and the kinetic parameters of on-rate (ka), off-rate (kd), and affinity […] were determined.
Single nucleotide polymorphism (SNP) in C3 has been observed across the population and certain SNPs were identified in genome-wide association studies (GWAS) to correlate with an increased risk to develop AMD. Common SNP variants include P314L, which occurs in approximately 23.3% of population, and R102G, which has been reported to occur in approximately 26-29% of population. Very rare variants, which occur in less that 2.5% of the population include K155Q, R735W, S1619W, K65Q and R161W.
The inventors therefore measured the binding affinity of the scFv of the invention to the most commonly occurring C3 forms, i.e., R102G and P314L. Wild-type human C3, human C3 P314L and human C3 R102G are expressed in the CHO cell line using the ExpiFectamine CHO Expression Kit (Thermo Fisher Scientific). Proteins are expressed with N-terminal 6×His tag and purified using a HisTrap Excel HP column (GE Healthcare), followed by a size-exclusion chromatography step (SUPERDEX®20010/300GL; GE Healthcare).

Alternative Pathway = assay: WEISLAB Complement system Screen, alternative pathway MAC (C5b-C9) formation; type: biochemical, human; settings: human serum; read-out: IC50 (nM) Alternative Pathway MAC deposition
Description: as §1, §2

pre-existing ADA = assay: Bridging ELISA screen for pre-existing ADA in sera of healthy human donors; settings: 10% serum of healthy human donors
From the text: The inventors screen sera of healthy human donors for pre-existing ADA against Clone I using a bridging ELISA. Pre-existing ADAs present in serum from healthy human donors are bound by immobilized anti-C3 scFv. In a next step, ADAs are bound by the same anti-C3 scFv labeled with biotin and are detected by HRP-conjugated Streptavidin.
The scFv is biotin-labeled using the “Biotin Conjugation Kit (Fast, Type A)-Lightning-Link”-Kit (Expedeon/Abcam) following the suppliers' instructions. The unlabeled scFv is diluted to 0.5 μg/ml in PBS, 50 μl per well transferred to a 96 well plate and incubated overnight at 4° C. On the next day, the 96 well plate is washed with wash buffer (3×320 μl, 0.05% Tween 20 in PBS pH 7.4) and non-specific binding sites are blocked with 300 μl/well blocking buffer (SuperBlock Blocking Buffer; ThermoFisher scientific) for 30 min at room temperature. The wells are then washed with wash buffer (3×320 μl/well)
Human serum from healthy volunteers is diluted to 10% in PBS, 50 μl/well are added to the 96 well plate and the plate incubated for 1 hr at room temperature. […]
The plate is washed (3×320 μl/well wash buffer), 50 μl/well TMB substrate (Invitrogen) is added and incubated for 5 min at room temperature. […] The absorption is measured at 450 nm. […]

T1 sequence (P01024 23-1663 R102G): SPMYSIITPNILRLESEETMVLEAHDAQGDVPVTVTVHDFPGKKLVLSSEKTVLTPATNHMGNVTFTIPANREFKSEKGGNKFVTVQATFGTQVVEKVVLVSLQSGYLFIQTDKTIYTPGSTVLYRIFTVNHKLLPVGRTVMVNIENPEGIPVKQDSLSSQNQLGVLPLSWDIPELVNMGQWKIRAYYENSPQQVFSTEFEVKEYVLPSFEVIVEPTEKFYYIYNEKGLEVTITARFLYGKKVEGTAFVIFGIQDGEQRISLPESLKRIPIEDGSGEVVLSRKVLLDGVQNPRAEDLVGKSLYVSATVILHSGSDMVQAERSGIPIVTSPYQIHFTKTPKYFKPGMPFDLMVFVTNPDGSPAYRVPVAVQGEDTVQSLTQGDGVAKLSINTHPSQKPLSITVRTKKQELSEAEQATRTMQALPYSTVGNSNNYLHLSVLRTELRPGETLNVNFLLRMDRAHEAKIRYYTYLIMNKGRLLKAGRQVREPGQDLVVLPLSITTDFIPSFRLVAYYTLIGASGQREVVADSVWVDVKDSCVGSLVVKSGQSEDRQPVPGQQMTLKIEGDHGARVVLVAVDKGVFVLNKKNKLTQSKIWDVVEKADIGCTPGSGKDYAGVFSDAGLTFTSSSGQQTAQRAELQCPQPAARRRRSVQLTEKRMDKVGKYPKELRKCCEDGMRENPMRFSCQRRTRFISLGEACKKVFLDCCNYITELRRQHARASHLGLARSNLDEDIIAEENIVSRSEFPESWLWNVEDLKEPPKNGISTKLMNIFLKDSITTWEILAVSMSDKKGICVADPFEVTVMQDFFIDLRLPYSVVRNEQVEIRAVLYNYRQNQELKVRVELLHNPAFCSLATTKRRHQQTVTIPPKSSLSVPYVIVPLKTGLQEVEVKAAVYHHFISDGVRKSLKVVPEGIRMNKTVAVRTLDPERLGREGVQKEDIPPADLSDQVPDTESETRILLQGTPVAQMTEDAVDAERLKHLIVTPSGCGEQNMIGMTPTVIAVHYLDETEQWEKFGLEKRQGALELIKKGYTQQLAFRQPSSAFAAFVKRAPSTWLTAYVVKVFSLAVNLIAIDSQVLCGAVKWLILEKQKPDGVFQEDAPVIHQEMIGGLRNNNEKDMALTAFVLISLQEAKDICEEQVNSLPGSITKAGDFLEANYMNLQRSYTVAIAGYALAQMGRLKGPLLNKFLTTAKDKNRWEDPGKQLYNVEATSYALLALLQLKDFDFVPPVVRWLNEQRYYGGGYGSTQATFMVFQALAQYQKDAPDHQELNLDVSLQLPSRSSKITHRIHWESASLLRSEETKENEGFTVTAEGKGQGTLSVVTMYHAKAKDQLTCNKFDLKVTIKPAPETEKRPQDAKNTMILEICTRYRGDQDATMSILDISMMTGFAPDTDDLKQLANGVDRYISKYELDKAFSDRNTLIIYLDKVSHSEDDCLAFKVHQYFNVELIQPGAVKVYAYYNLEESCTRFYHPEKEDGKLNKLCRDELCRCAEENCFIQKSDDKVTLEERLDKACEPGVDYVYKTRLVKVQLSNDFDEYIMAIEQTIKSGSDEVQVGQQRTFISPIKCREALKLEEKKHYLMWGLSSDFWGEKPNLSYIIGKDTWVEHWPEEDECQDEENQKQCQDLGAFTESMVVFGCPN

Molecule	IC50 (Lectin Pathway) [nM]	Storage stability, SEC 4 weeks at 25° C. [D %] [1] [D %]	Storage stability, SEC 4 weeks at 40° C. [D %] [1] [D %]	IC50 (Classical Pathway (CP)) [nM]	Kd (human C3 R102G) [nM]	kd C3 SNP2 R102G (human C3 R102G) [s⁻¹]	ka C3 SNP2 R102G (human C3 R102G) [M⁻¹ s⁻¹]	IC50 (Alternative Pathway) [nM]	Serum samples with pre-existing ADA (pre-existing ADA)
Clone I: humanized anti-C3 scFv, VH SEQ ID NO: 20, VL SEQ ID NO: 21; scFv SEQ ID NO: 26 or 27 (antibody, V domains shown, VH; VL) VH: QVQLVESGGGSVQPGRSLRLSCAASGFTFSNYAMNWVRQAPGKGLEWVAVISYDGSNKYYADSVKGRFTISRDNSKNTLYLQMNSLRAEDTASYYCARAVGYHHARLDPWGCGTSVTVSS VL: QLVLTQSPSASASLGASVKLTCTLSSAHKTYTIDWYQQQPEKCPRYLMQLKSDGSYTKGSGIPDRFSGSSSGAERYLTISSLQSEDEADYYCGTEGVGGYVFGGGTKLTVLG	67	0.06	0.37	74	0.135	4.5e-05	330000	344	9 out of 50
Clone II: humanized anti-C3 scFv, VH SEQ ID NO: 22, VL SEQ ID NO: 23; scFv SEQ ID NO: 28 or 29 (antibody, V domains shown, VH; VL) VH: QVQLVESGGGSVQPGRSLRLSCAASGFTFSNYAMNWVRQAPGKGLEWVAIINVGGGTNYADSVKGRFTISRDNSKNTLYLQMNSLRAEDTASYYCARAVGYHHARLDPWGCGTSVTVSS VL: QLVLTQSPSASASLGASVKLTCTLSSAHKTYTIDWYQQQPEKCPRYLMQLKSDGSYTKGSGIPDRFSGSSSGAERYLTISSLQSEDEADYYCGTEGVGGYVFGGGTKLTVLG	71	0.11	1.59	69	0.021	7e-06	330000	360	
